Measurements: publication PMC11514473, “The transition state for coupled folding and binding of a disordered DNA binding domain resembles the unbound state” (Nucleic Acids Research, 2024)

Biological target: T1, 285bZIP K309G (human, UniProt P16220-1 285-339, C300S;C310S;C337S;K309G)
T1 sequence: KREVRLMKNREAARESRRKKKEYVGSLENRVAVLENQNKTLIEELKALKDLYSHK
Assay: stopped-flow fluorescence (koff/kon); 10 mM Mg2+; 10 mM MES pH 6.5, 150 mM NaCl, 10 mM MgCl2, 0.05% Tween-20, 25 C; NMR: 10 mM Tris-d11, 150 mM NaCl, 10 mM MgCl2, 1 mM NaN3, 5% D2O (NOE at 25 C)
Settings: protein: recombinant; tags: extra N-terminal Gly; chain copies: 2; label: 5' Alexa Fluor 488; hairpin (self-annealing, 11 bp stem, CCCC loop)

B1: AlexaFluor488-CREh (structured_DNA)
DNA: CCTGACGTCAGCCCCCTGACGTCAGG
Binder B1 has a Kd of 26 ± 2 nM.
